Measurements: EP4667483A1 (JCR Pharmaceuticals Co., Ltd., dated 2024)
Blank lines part the entries; values can stand above or below the binder they belong to. Numbered stars: 1 amine (or outer) side, 2 acyl side, 3 side chain; on linkers, the order of the positions; unused ones are H or OH. Bridge positions count the residues as written; N and C are the ends. Square brackets hold non-standard residues; d marks the D form. * marks the point of attachment. F4aao = 4-(carboxymethoxy)-L-phenylalanine, O=C([C@H](Cc1ccc(OCC(=O)[*:3])cc1)N[*:1])[*:2]; X4 = 4‑(carboxymethyl)piperazine‑1‑carbonyl, O=C(O)CN1CCN(C(=O)*)CC1; NH(1-deoxy-D-glucityl) = OC[C@@H](O)[C@@H](O)[C@H](O)[C@@H](O)CN*; PEG4c = amino-tetraoxa (PEG4) carboxylic acid spacer; Phe(3-COOH) = N[C@@H](Cc1cccc(C(=O)O)c1)C(=O)O; NMePhe(3-Cl) = CN[C@@H](Cc1cccc(Cl)c1)C(=O)O; Piperazinyl(4-CH2COOH) = O=C(O)CN1CCN(*)CC1; NMeY = CN[C@@H](Cc1ccc(O)cc1)C(=O)O

How the values were obtained:
[1] = molecular target: T1, human transferrin receptor (hTfR) (human, UniProt P02786 89-760); test: SPR, Biacore T200, pH 7.4, hTfR captured by anti-His antibody on CM3 chip, single-cycle kinetics
T1 construct: also called human TfR; TfR1
T1 sequence (P02786 89-760 limits assumed): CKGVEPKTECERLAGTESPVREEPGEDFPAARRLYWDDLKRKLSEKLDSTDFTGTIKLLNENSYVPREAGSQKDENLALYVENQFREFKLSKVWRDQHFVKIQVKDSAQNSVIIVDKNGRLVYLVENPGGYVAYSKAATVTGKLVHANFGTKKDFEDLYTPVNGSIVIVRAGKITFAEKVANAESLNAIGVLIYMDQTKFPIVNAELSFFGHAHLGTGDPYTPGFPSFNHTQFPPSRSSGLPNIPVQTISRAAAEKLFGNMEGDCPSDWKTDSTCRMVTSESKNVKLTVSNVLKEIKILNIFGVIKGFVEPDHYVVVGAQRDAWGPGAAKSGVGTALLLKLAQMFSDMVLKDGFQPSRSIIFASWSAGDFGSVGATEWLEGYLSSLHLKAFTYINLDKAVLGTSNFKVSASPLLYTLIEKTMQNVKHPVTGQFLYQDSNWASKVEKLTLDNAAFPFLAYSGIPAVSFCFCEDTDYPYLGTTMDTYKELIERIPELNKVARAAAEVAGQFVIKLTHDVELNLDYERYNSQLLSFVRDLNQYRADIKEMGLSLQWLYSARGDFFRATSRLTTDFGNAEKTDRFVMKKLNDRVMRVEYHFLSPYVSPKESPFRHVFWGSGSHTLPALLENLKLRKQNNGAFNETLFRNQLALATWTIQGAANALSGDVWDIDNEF

[2] = molecular target: T2, human transferrin receptor (hTfR) (human, UniProt P02786 89-760); test: SPR; ratio of KD at pH 6.0 to KD at pH 7.4
T2 construct: also called human TfR; TfR1
T2 sequence (P02786 89-760 limits assumed): as above

[3] = molecular target: T2, human transferrin receptor (hTfR); test: SPR; ratio of koff at pH 6.0 to koff at pH 7.4
[4] = molecular target: T2, human transferrin receptor (hTfR); test: SPR, Biacore T200, hTfR immobilised on NTA chip, pH 6.0
[5] = molecular target: T2, human transferrin receptor (hTfR); test: SPR, Biacore T200, hTfR captured by anti-His antibody on CM3 chip, pH 7.4
[6] = molecular target: T2, human transferrin receptor (hTfR); test: SPR; ratio of KD at pH 6.0 to KD at pH 7.4; remark: listed apart in the source
[7] = molecular target: T2, human transferrin receptor (hTfR); test: SPR; ratio of koff at pH 6.0 to koff at pH 7.4; remark: listed apart in the source
[8] = molecular target: T2, human transferrin receptor (hTfR); test: SPR, Biacore T200, hTfR immobilised on NTA chip, pH 6.0; remark: listed apart in the source
[9] = molecular target: T2, human transferrin receptor (hTfR); test: SPR, Biacore T200, hTfR captured by anti-His antibody on CM3 chip, pH 7.4; remark: listed apart in the source
[10] = molecular target: T3, human transferrin receptor (hTfR) (human, UniProt P02786 89-760); test: SPR, pH 6.0
T3 construct: a His tag is implied by the NTA chip and the anti-His capture; also called human TfR; TfR1
T3 sequence (P02786 89-760 limits assumed): as above

[11] = molecular target: T3, human transferrin receptor (hTfR); test: SPR, pH 7.4
[12] = molecular target: T3, human transferrin receptor (hTfR); test: SPR, KD pH 6.0 / KD pH 7.4
[13] = molecular target: T3, human transferrin receptor (hTfR); test: SPR, koff pH 6.0 / koff pH 7.4
[14] = molecular target: T3, human transferrin receptor (hTfR); test: SPR, pH 6.0; remark: listed apart in the source
[15] = molecular target: T3, human transferrin receptor (hTfR); test: SPR, pH 7.4; remark: listed apart in the source

Kd [1]: 1040 nM
B1: 894_3493 (SEQ ID NO: 198) (peptide)
peptide: AVXVWNRYIIRRYXC
modifications: MeF at 3; MeF4COO at 14; N-terminal Ala chloroacetylated and cyclised by thioether to Cys 15; linker G-de-de-de-ds-ds-KN3-NH2 on Cys 15 (de = D-Glu, ds = D-Ser, KN3 = azido-lysine, C-terminal amide)
notes: Cyclic peptide with linker

dependency KD pH6.0/7.4 [2]: 10.8 | dependency koff pH6.0/7.4 [3]: 22.2 | Kd [4]: 5.73 nM | Kd [5]: 0.529 nM
B2: 894_0530 (SEQ ID No. 80) (peptide)
peptide: AVXVWNYXIIQRXXC
modifications: MeF3C at 3; F4OMe at 8; Eva at 9; F3COO at 13; MeF4COO at 14; cyclic: chloroacetylated N-terminal Ala 1 joined to Cys 15; linker PEG4c on C-terminus
notes: As printed: A-V-MeF3C-V-W-N-Y-F4OMe-Eva-I-Q-R-F3COO-MeF4COO-C, linker PEG4c

dependency KD pH6.0/7.4 [6]: 1.81 | dependency koff pH6.0/7.4 [7]: 3.29 | Kd [8]: 13.8 nM | Kd [9]: 7.64 nM
B3: 894_0591 (SEQ ID No. 117) (peptide)
peptide: AVXVXNYYXIKRYXC
modifications: not fully specified; MeF at 3; MeW at 5; Eva at 9; MeY at 14; cyclic: chloroacetylated N-terminal Ala 1 joined to Cys 15; linker PEG4c on C-terminus
notes: As printed: A-V-MeF-V-MeW-N-Y-Y-Eva-I-K-R-Y-MeY-C, linker PEG4c

Kd [10]: 12.4 nM | Kd [11]: 1.48 nM | dependency KD pH6.0/7.4 [12]: 8.37 | dependency koff pH6.0/7.4 [13]: 25.6
Binder: {CH2CO}-AV[NMePhe(3-Cl)]VWNY[F4aao](NH(1-deoxy-D-glucityl))IIE(NH(1-deoxy-D-glucityl))QF[NMeY]C-{PEG4c-NH2} (thioether N-15) [894_0512 (SEQ ID NO: 39)]

Kd [1]: 531 nM
B4: 894_3495 (SEQ ID NO: 199) (peptide)
peptide: AVXVWNRYIIRRYXC
modifications: MeF at 3; MeY at 14; N-terminal Ala chloroacetylated and cyclised by thioether to Cys 15; linker G-de-de-de-ds-ds-KN3-NH2 on Cys 15 (de = D-Glu, ds = D-Ser, KN3 = azido-lysine, C-terminal amide)
notes: Cyclic peptide with linker

Kd [14]: 32.3 nM | Kd [15]: 8.74 nM
B5: 894_3434 (SEQ ID NO: 64) (peptide)
peptide: AVXVWNYXIIRRYXC
modifications: 3 MeF; 8 F4aao(PEG8Me); 14 MeY; chloroacetyl-Ala1 cyclised to Cys15; linker G-KN3 after Cys15; terminus -NH2
notes: The linker G-KN3 (Gly, N6-diazo-L-lysine) follows Cys15; whether the listing entry holds these two residues cannot be seen here

dependency KD pH6.0/7.4 [6]: 3.88 | dependency koff pH6.0/7.4 [7]: 4.21 | Kd [8]: 4.31 nM | Kd [9]: 1.11 nM
B6: 894_0592 (SEQ ID No. 118) (peptide)
peptide: AVXVXNYYIIKRYXC
modifications: not fully specified; MeF at 3; MeW at 5; MeF4COO at 14; cyclic: chloroacetylated N-terminal Ala 1 joined to Cys 15; linker PEG4c on C-terminus
notes: As printed: A-V-MeF-V-MeW-N-Y-Y-I-I-K-R-Y-MeF4COO-C, linker PEG4c

dependency KD pH6.0/7.4 [2]: 1.89 | dependency koff pH6.0/7.4 [3]: 5.72 | Kd [4]: 6.32 nM | Kd [5]: 3.34 nM
B7: 894_0518 (SEQ ID No. 72) (peptide)
peptide: {CH2CO}-AV[NMePhe(3-Cl)]VWNY[F4aao]IIQR[Phe(3-COOH)][NMeY]C-PEG4c
modifications: thioether N-15
notes: As printed: A-V-MeF3C-V-W-N-Y-F4aao-I-I-Q-R-F3COO-MeY-C, linker PEG4c

dependency KD pH6.0/7.4 [2]: 4.91 | dependency koff pH6.0/7.4 [3]: 13.5 | Kd [4]: 9.19 nM | Kd [5]: 1.87 nM
B8: 894_0531 (SEQ ID No. 81) (peptide)
peptide: AVXVWNYXIIQRXXC
modifications: MeF3C at 3; F4OMe at 8; Eva at 9; F3COO at 13; MeF3COO at 14; cyclic: chloroacetylated N-terminal Ala 1 joined to Cys 15; linker PEG4c on C-terminus
notes: As printed: A-V-MeF3C-V-W-N-Y-F4OMe-Eva-I-Q-R-F3COO-MeF3COO-C, linker PEG4c

Kd [10]: 14.8 nM | Kd [11]: 4.75 nM | dependency KD pH6.0/7.4 [12]: 3.12 | dependency koff pH6.0/7.4 [13]: 12.5
Binder: {CH2CO}-AV[NMePhe(3-Cl)]VWNY[F4aao](Piperazinyl(4-CH2COOH))IIK(X4)QF[NMeY]C-{PEG4c-NH2} (thioether N-15) [894_0511 (SEQ ID NO: 38)]

Kd [14]: 7.47 nM | Kd [15]: 0.861 nM
B9: 894_0610 (SEQ ID NO: 61) (peptide)
peptide: AVXVXNYYIIKRYXC
modifications: 3 MeF3C; 5 3Imp; 14 MeY; chloroacetyl-Ala1 cyclised to Cys15; linker PEG4c after Cys15; terminus -NH2
